In PMC12713027:

Biological target: NAA15-mCherry (rice (Oryza sativa, japonica cultivar Zhonghua 11))
Experiment: FRET or BRET; FLIM-FRET in rice protoplasts, donor NAA10-eGFP and acceptor NAA15-mCherry co-expressed with pRTV-RESIS, 16 h after transfection

- mean fluorescence lifetime of the donor (co-expressed with RESIS): 2.45 ns
Substance: NAA10-eGFP (natural protein)
